Experimental data taken from the RNAGym collection of RNA variant scans (doi:10.7554/elife.90254).

B1: LINE1-full (parent)
chain: UACGUAGGUGGUUUUCCCCUGAUAGUGCUAAGGGGGCCUGGAAGUUUGGACUGGGCAGAGCUCAACACAGCGUGGCAAAGUGGCUGUGGCUAGACUGCCUCUCUGGAUUCCUCGUCACUCAGCAGGGCAUCUCUGAGAGAAAUGCC

Variants of: B1
Assay: self-cleavage, relative activity (ratio to wild type); higher = more cleavage; in vitro, sequencing; the parent is a self-cleaving ribozyme

Variant | self-cleavage
UACGUAGGUGGUUUUCCCCUGAUAGUGCUUAGGGGGCCUGGACGUUUGGACUGGGCAGAGCUCAACACAGCGUGGCAAAGUGGCUGUGGCUAGACUGCCUCUCUGGAUUCCUCGUCACUCAGCAGGGCAUCUCUGAGAGAAAUGCC [A30U A43C] | 1.57
UACGUAGGCGGGUUUCCCCUGAUAGUGCUAAGGGGGCCUGGAAGUUUGGACUGGGCAGAGCUCAACACAGCGUGGCAAAGUGGCUGUGGCUAGACUGCCUCUCUGGAUUCCUCGUCACUCAGCAGGGCAUCUCUGAGAGAAAUGCC [U9C U12G] | 1.15
UACGUAGGUGGUUUUCCCCUGAUAGUGCUAAGGGGGCCUGGAAGUUUGGACUGGGCAGAGCUCAACACAGCGUGGCAAUGCGGCUGUGGCUAGACUGCCUCUCUGGAUUCCUCGUCACUCAGCAGGGCAUCUCUGAGAGAAAUGCC [A79U U81C] | 0.4
UACGUAGGUGGUUUUCCCCGGAUAGUGCUAAGGGGGCCUGGAAGUUUGGACUGGGCAGAGCUCAACACAGCGUGGCAAAGUGGCUGUGGCUAGACGGCCUCUCUGGAUUCCUCGUCACUCAGCAGGGCAUCUCUGAGAGAAAUGCC [U20G U96G] | 0
UACGUAGGUGGUUUUCCCCUGAUAGUGCUAACGGGGCCUGGAAGUUUGGACUGGGCAGAGCUCAACACAGCGUGGCAAAGUGGCUGUGGCUAGACUGCCUCUCUGGAUUCCUCGUCACUCAGCAGGGCAUCUCUGAGGGAAAUGCC [G32C A138G] | 0.84
UACGUAGGUGGUUUUCCCCUGAUAGUGCUAAGGGGGCCUGGAAGUUUGGACUAGGCAGAGCUCAACACAGCGUGGCAAAGUGGCUGUGGCUAGACUGCCUCUCUGGAUUCCUCGUCACUCAGCAGAGCAUCUCUGAGAGAAAUGCC [G53A G126A] | 1.23
UACGUAGGUGGUUUUCCCCUGAUAGUGCUAAGUGGGCCUGGAAGUUUGGACUGGGCAGAGCUCAACACAGCGUGGCCAAGUGGCUGUGGCUAGACUGCCUCUCUGGAUUCCUCGUCACUCAGCAGGGCAUCUCUGAGAGAAAUGCC [G33U A77C] | 0.83
UACGUAGGUGGUUUUCCCCUGAUAGUGCUAAGGGGGCCUGGAAGUUUGGACUGGGCAGAGCUCAACACAGCGUGGCAAAGUGGCUGUGGCUAGACAGCCUCUCUGGAUUCCUCGUCACCCAGCAGGGCAUCUCUGAGAGAAAUGCC [U96A U119C] | 0.11
UACGUAGGUGGUUUUCCCCUGAUAGUGCUAAGGGGGCCUGGAAGCUUGGACUGGGCAGAGCUCAACACAGCGUGGCAAAGUGGCUGUGGCUAGACUGCCUCUCUGGAUUCCUCGUCACUGAGCAGGGCAUCUCUGAGAGAAAUGCC [U45C C120G] | 2.05
UACGUAGGUGGUUUUCCCCUGAUAGUGCUAAGGGGGCCUGGAAGUUUGGACUGGGCAGAGCUCAACACAGCCUGGCGAAGUGGCUGUGGCUAGACUGCCUCUCUGGAUUCCUCGUCACUCAGCAGGGCAUCUCUGAGAGAAAUGCC [G72C A77G] | 2.28
UACGUAGGUGGUUUUCCCCUGAUAGUGCUACGGGGGCCUGGAAGUUUGGACUGGGCAGAGCUCAACACAGCGUGGCAAAGUGGCCGUGGCUAGACUGCCUCUCUGGAUUCCUCGUCACUCAGCAGGGCAUCUCUGAGAGAAAUGCC [A31C U85C] | 0.54
UACGUAGGUGGUUUUCCCCUGAUAGUGCUAAGGGGGCCUGGAAGUUUGGACUGGGCAGAGCUCAACUCAGCGUGGCAAAGUGGCUGUGGCUAGACUGCCUCUCUGGAUUCCUCGUCACUCAGCAGGGCAUCUCUGAGAGAAAUGCC [A67U] | 0.11
UACGUAGGUGGUUUUCCCCUGAUAGUGCUAAGGGGGCCUGGGAGUUUGGACUGGGCAGAGCUCAACACAGCGUGGCAAAGUGGCUGUGGCUAGACUGCCUCUCUGGAUUCCUCGUCACUCAGCAGGGCAUAUCUGAGAGAAAUGCC [A42G C131A] | 1.23
UACGUAGGUGGUAUUCCCCUGAUAGUGCUAAGGGGGCCUGGAAGUUUGGACUGGGCAGAGCUCUACACAGCGUGGCAAAGUGGCUGUGGCUAGACUGCCUCUCUGGAUUCCUCGUCACUCAGCAGGGCAUCUCUGAGAGAAAUGCC [U13A A64U] | 0.25
UACGUAGGUGGUUUUCCCCUGAUAGUGCUGAGGGGGCCUGGAAGUUUGGACUGGGCAGAGCUCAGCACAGCGUGGCAAAGUGGCUGUGGCUAGACUGCCUCUCUGGAUUCCUCGUCACUCAGCAGGGCAUCUCUGAGAGAAAUGCC [A30G A65G] | 0.07
UACGUAGGUGGUUUUCCCCUGAUAGUGCUAAGGGGGCCUGGAAGUUUGGACUGGGCAGAGCUCAACACAGCGUGGCAAAGUGGCUGUGGCUUGACUGCCUCUCUGGAUUCCUCGUCACUCAGCAGGGUAUCUCUGAGAGAAAUGCC [A92U C128U] | 0.47
UACGUAGGUGGUUUUCCCCUGAUAGUGCUAAGGGGGCCUGGAAGUUUGGACUGGGCUGAGCUCAACACAGCGUGGCAAAGUGGCUGUAGCUAGACUGCCUCUCUGGAUUCCUCGUCACUCAGCAGGGCAUCUCUGAGAGAAAUGCC [A57U G88A] | 0.04
UACGUAGGUGGUUUUCCCCUGAUAGUGCUAAGGGGGCCUGGAGGUUUGGACUGGGCAGAGCUCAACACAGCGUGGCAAAGUGGCGGUGGCUAGACUGCCUCUCUGGAUUCCUCGUCACUCAGCAGGGCAUCUCUGAGAGAAAUGCC [A43G U85G] | 0.15
UACGUAGGUGGUUUUCCCCUGAUAGUGCUAAGGGGGCCUGGAAGUUUGGACUGGGCAGAGCUCAACACAGCGUGGCAAAGUGGCUAUGGCUAGACUGCCUCUCUGGAUUCCUCGUCACUCAGCCGGGCAUCUCUGAGAGAAAUGCC [G86A A124C] | 0.03
UACGUAGGUGGUUUUCCCCUGAUAGUGCUAAGGGGGCCUGGAAGUUUGGACUGGGCAGAGCACAACACAGCGUGGCAAAGUGGCUGUGGCUAGACUGCCUCUCUGGACUCCUCGUCACUCAGCAGGGCAUCUCUGAGAGAAAUGCC [U62A U108C] | 0.04

Variant | self-cleavage
UACGUAGGUGGUCUUCCCCUGAUAGUGCUAAGGGGGCCUGGAAGUUUGGACUGGGCAGAGCUCAACACAGCGUGGCAAAGUGGCUGUGGUUAGACUGCCUCUCUGGAUUCCUCGUCACUCAGCAGGGCAUCUCUGAGAGAAAUGCC [U13C C90U] | 0.04
UACGUAGGUGGUUUUCCCCUGAUAGUGCUAAGGGGGCCUGGAAGUUUGGACUGGGCAGAGCUCAACACAGCGUGGCAAAGUGGCUGUGGCUAGACUGCCUCCCUGGAAUCCUCGUCACUCAGCAGGGCAUCUCUGAGAGAAAUGCC [U102C U108A] | 1.57
UACGUAGGUGGUUUUCCCCUGAUAGUGCUAAGGGGGCCUGGAAGUUUGGACUGGGCAGAGCUCAACACAGCGUGGCAAAGUGGCUGUGGCUAGACUUCCUCUCUGGAUUCCUCGUCACUCAGUAGGGCAUCUCUGAGAGAAAUGCC [G97U C123U] | 0.03
UACGUAGGUGGUUUUCCCCUGAUAGUGCAAAGGGGGCCUGGAAGGUUGGACUGGGCAGAGCUCAACACAGCGUGGCAAAGUGGCUGUGGCUAGACUGCCUCUCUGGAUUCCUCGUCACUCAGCAGGGCAUCUCUGAGAGAAAUGCC [U29A U45G] | 0.38
UACGUAGGUGGAUUUCCCCUGAUAGUGCUGAGGGGGCCUGGAAGUUUGGACUGGGCAGAGCUCAACACAGCGUGGCAAAGUGGCUGUGGCUAGACUGCCUCUCUGGAUUCCUCGUCACUCAGCAGGGCAUCUCUGAGAGAAAUGCC [U12A A30G] | 0.94
UACGUAGGUGGUUUUCCCCUGAUAGUGCUAAGGGGGCCUGUAAGUUUGGACUGGGCAGAGCUCGACACAGCGUGGCAAAGUGGCUGUGGCUAGACUGCCUCUCUGGAUUCCUCGUCACUCAGCAGGGCAUCUCUGAGAGAAAUGCC [G41U A64G] | 0.16
UACGUAGGUGGUUUUCCCCUGAUAGUGCUAAGGGGGCCUGGAAGUUUGGACUGGGAAGAGCUCAACACAGCGCGGCAAAGUGGCUGUGGCUAGACUGCCUCUCUGGAUUCCUCGUCACUCAGCAGGGCAUCUCUGAGAGAAAUGCC [C56A U73C] | 0.05
UACGUAGGUGGUUUUCCCCUGAUAGUACUAAGGGGGCCUGGAAGUUUGGACUGGGCAGAGCUCAACACAGCGUGGCAAAGUGGCUGUGGCUAGACUGCCUCUCUGGAUUCCUCGUCACUCAGCAGGGCACCUCUGAGAGAAAUGCC [G27A U130C] | 1.34
UACGUAGGUGGUUUUCCCCCGAUAGUGCUAAGGGGGCCUGGAAGUUUGGACUGGGCAGAGCUCAACACAGCGUGGCAAAGUGGCUGUGGCUAGACUGCCUCUCUGGAUUCCUCGUCACUCAGCAGGGCAUCUCUGAGGGAAAUGCC [U20C A138G] | 1.55
UACGCUGGUGGUUUUCCCCUGAUAGUGCUAAGGGGGCCUGGAAGUUUGGACUGGGCAGAGCUCAACACAGCGUGGCAAAGUGGCUGUGGCUAGACUGCCUCUCUGGAUUCCUCGUCACUCAGCAGGGCAUCUCUGAGAGAAAUGCC [U5C A6U] | 1.09
UACGUAGGUGGUUUUCCCCUGAUAGUGCUAAGGGGGCCUGGAAGUCUGGACUGGGCAGAGCUCAACACAGCGUGGCAAAGUGGCUGUGGCUAGACUGCCUCUCUGGAUUCCUCGUCACUCAGCAGGGCAUCUCUGUGAGAAAUGCC [U46C A136U] | 1.44
UACGUAGGUGGUUUUCCCCUGAUAGAGCUAAGGGGGCCUGGAAGUUUGGACUGGGCAGAGCUCAACACAGCGUGGCAAAGUGGCUGUGGCUAGACUGCCUCUCUGGAUUCCUCAUCACUCAGCAGGGCAUCUCUGAGAGAAAUGCC [U26A G114A] | 0.67
UACGUAGGUGGUUUUCCCCUGAUAGUGCUAAGGGGGCCUGGAAGUUUGGACUGGGCAGAGCUCAACGCAGCGUGGCAAAGUGGCUGUGGCUAGACUGCCCCUCUGGAUUCCUCGUCACUCAGCAGGGCAUCUCUGAGAGAAAUGCC [A67G U100C] | 0.4
UACGUAGGUGGUUUUCCCCUGAUAGUGCUAAGGGGGCCUGGAAGUUUGGACUGGGCAGAGCUCAACACAGCGUGGCAAAGUGGCUGUGGCUAGACUACCUCUCUGGAUCCCUCGUCACUCAGCAGGGCAUCUCUGAGAGAAAUGCC [G97A U109C] | 0.05
UACGUAGGUGGUUUUCCCCUGGUAGUGCUAAGGGGGCCUGGAAGUUUGGACAGGGCAGAGCUCAACACAGCGUGGCAAAGUGGCUGUGGCUAGACUGCCUCUCUGGAUUCCUCGUCACUCAGCAGGGCAUCUCUGAGAGAAAUGCC [A22G U52A] | 1.21
UACGUAGGUGGUUUUCCCCUGAUAGUGCUAAGGGGGCCUGGAAGUUUGGACUGGGCAGAGCUCAACACAGCGUGGCAAAGUGGCCGUGGCUAGACUGCCUCUCUGGAUUCCUCGUCACUCAGCGGGGCAUCUCUGAGAGAAAUGCC [U85C A124G] | 0.13
UUCGUAGGUGGUUUUCCCCUGAUAGUGCUAAGGGGGCCUGGAAGUUUGGACUGGGCAGAGCUCAACACAGCGUGGCAAAGUGGCUGUGGCUAGACUGCCUCUCUGGAUUCCUCGUCACUCAGCAGGGCACCUCUGAGAGAAAUGCC [A2U U130C] | 0.32
UACGUUGGUGGUCUUCCCCUGAUAGUGCUAAGGGGGCCUGGAAGUUUGGACUGGGCAGAGCUCAACACAGCGUGGCAAAGUGGCUGUGGCUAGACUGCCUCUCUGGAUUCCUCGUCACUCAGCAGGGCAUCUCUGAGAGAAAUGCC [A6U U13C] | 1.25
UACGUAGGUGGUUUUCCCCUGAUAGUGCUAAGGGGGCCUGGAGGUUUGGACUGGGCAGAGCUCAACACCGCGUGGCAAAGUGGCUGUGGCUAGACUGCCUCUCUGGAUUCCUCGUCACUCAGCAGGGCAUCUCUGAGAGAAAUGCC [A43G A69C] | 0.13
